Results reported in US20180280504A1, “GLYCAN-INTERACTING COMPOUNDS AND METHODS OF USE” (SIAMAB THERAPEUTICS, INC., priority 2014, published 2018).

Tests used:
[1] = tested on: STn on bovine submaxillary mucin (BSM); test: Anti-STn BSM ELISA, non-treated and periodate-treated wells; type: binding; details: BSM ELISA without and after periodate treatment
Procedure: Anti-STn serum titer is determined using a murine anti-STn bovine submaxillary mucin (BSM) ELISA together with serum profiles observed by glycan microarray. 96-well plates are coated with 1 μg/well of BSM and incubated overnight at 4° C. O-acetylation of BSM antigen is removed by treating wells with 0.1 M sodium hydroxide. Specific binding to STn is determined by treatment of wells with sodium periodate. Periodate treatment destroys the […] side chain of sialic acid; therefore antibodies raised against STn should not bind to periodate-treated wells. Wells are blocked with PBS 1% ovalbumin (OVA). Serum samples to be assayed are serially diluted in PBS 1% OVA. A commercially available mouse anti-STn monoclonal antibody, 3F1 (SBH Sciences, Natick, Mass.) is used as a positive control. This antibody is also serially diluted in PBS with 1% OVA. A pool of serum from naïve wild type mice is used for the preparation of negative control samples. Detection of anti-STn antibodies present in serum is determined using an HRP-conjugated polyclonal goat anti-mouse IgG antibody (Jackson Immunoresearch, West Grove, Pa.). The reaction is stopped by addition of sulfuric acid (1.6 M). Optical densities are measured at 490 nm using a Spectramax microplate reader (Molecular Devices, Sunnyvale, Calif.). The serum titer is obtained by comparison of OD values with a cutoff value calculated as two standard deviations above the mean of optical density values of the negative control. Sample tests are considered positive if the mean optical density value is greater than the cutoff value.
Binding affinities of 18D2 and 18C7 to STn were compared to commercially available anti-STn antibodies using the BSM ELISA assay described in Example 2. Commercial anti-STn antibodies used for comparison included 3F1 (SBH Sciences, Natick, Mass.,) TAG-72 clone B72.3 (Thermo Fisher Scientific, Waltham, Mass.,) TAG-72 clone CC49 (Santa Cruz Biotechnology, Santa Cruz, Calif.) as well as a negative control antibody against c-myc (Thermo Fisher Scientific, Waltham, Mass.). Each antibody was titrated using a 7-point, 1:5 serial dilution starting from 100 nM. Titrated antibodies were added to BSM ELISA plates containing wells that were non-treated or treated with sodium periodate. Antibody binding was determined using HRP-conjugated polyclonal goat anti-mouse IgG antibody (Jackson Immunoresearch Laboratories, West Grove, Pa.). The reaction was developed using an HRP substrate and stopped with 1.6 M sulfuric acid. Optical densities were measured at 490 nm using a Spectramax microplate reader. […] The half maximal effective concentration (EC50) for each antibody was calculated using a non-linear regression analysis carried out on periodate subtracted data.

OV-90 cells = test: Cell viability assay with secondary antibody-drug conjugate (2° ADC), OV-90; type: cell-based; details: with 2° ADC Fab αMFc-CL-MMAF
Procedure: Cell viability assays are performed to screen anti-STn antibodies of the present invention in the presence and absence of secondary antibody-drug conjugates (2° ADCs). The purpose of the screen is to identify the ability of each anti-STn antibody to inhibit cell growth. Antibodies with potent cell growth inhibition are used to design direct antibody-drug conjugates (ADCs). Using such secondary antibody-drug conjugates (2° ADCs) in cell-based cytotoxic assays can quickly pre-screen many ADC candidates against tumor cells. Based on the assay, a naked antibody candidate is directly added to cells in the presence of a 2° ADC. Internalization of the mAb/2° ADC complex into cells that express a high density of the targeted antigen can achieve a dose-dependent drug release within the cells, causing a cytotoxic effect to kill the cells (e.g., tumor cells), while cells expressing a low density of the targeted antigen are not affected (e.g., normal cells).
To perform cell viability assays, cell lines described in the present application (MDA-MB-231 parental, MDA-MB-231-STn+, and OV-90) are prepared and cultured for the assays. The cell culture is optimized for cell density by plating different densities of cells (e.g., 2,000, 4,000 and 7,500 per well) on a 96-well plate and observing the cell growth for 96 hours. The plating condition in which cells reach around 90% confluence at the end of the 96 hours is identified and the optimal cell number is then used in the final viability assay.
Duplicate or triplicate cell plates for each cell line are used for testing each antibody candidate.
For cell viability assays, data points are collected for each antibody candidate with duplicates for each data point. […]
Cell viabilities are measured by Cell-Titer Glo luminescence based assays.
Three anti-STn monoclonal antibodies (anti-STn antibodies S3F, 7G9 and 2D4) and an anti-EGFR monoclonal antibody LA22 were tested for internalization. […] Cell viability was then measured using CellTitreGlo Luminescent Cell Viability Assay (Promega, Madison, Wis.).

MDA-MD-231 STn cells = test: Antibody internalization by fluorescence microscopy cell counts, STn+ cells; type: cell-based, human; details: 10 μg/ml antibody
Procedure: 6-well culture dishes were prepared with collagen-coated coverslips in the center of 4 wells of each dish. Wells were seeded with either 10^5 cells/well of MDA-MD-231 cells or with 10^6 cells/well of MDA-MD-231 STn cells (expressing STn) and cultured for 24 hours.
10 μg/ml antibody solutions were prepared in cell culture media. A separate solution was prepared for each of LA22 antibody (EMD Millipore, Burlington, Mass.) as a positive control for cell surface binding, S3F antibody (internal reagent) as a positive control for STn binding, 8C11, 2D4, 7G9, 10A5 and GB26.16 (QED Bioscience, San Diego, Calif.) as a negative control. Media were removed from wells and 100 μl of each antibody solution was added to separate coverslips. Coverslips were covered with parafilm and incubated for 30 minutes at 4° C. to allow antibody binding. Antibody solutions were removed by washing and fresh media was added to each well. Cells were incubated at 37° C. for 15, 30, 60 or 240 min to allow for antibody internalization.
After incubation, cells were prepared for microscopy. Cells were washed with PBS and fixed with paraformaldehyde fixation buffer (PFA) containing 3% paraformaldehyde and 2% sucrose in PBS for 15 minutes at room temperature. Cells were rinsed again in PBS and treated with blocking buffer made up of PBS with 1% bovine serum albumin (BSA) or with permeabilization buffer made up of blocking buffer with 0.1% TX-100. Cells were incubated in for 30 min at room temperature, rinsed in PBS and treated with secondary antibody (ALEXA FLUOR® 488-labeled goat-anti-mouse IgG) for 2 hours at room temperature. Cells were rinsed again in PBS and treated with DAPI nuclear stain for 5 min at room temperature in the dark. Cells were rinsed again in PBS and mounted for fluorescence microscopy.

B1: 7G9: anti-STn mouse monoclonal, IgG2b κ, from mouse #4407; VH SEQ ID NO: 12, VL SEQ ID NO: 9 (antibody, V domains shown)
VH: QVQLKESGPGLVAPSQNLSITCTVSGFSLTSYGVNWVRQPPGKGLEWLGVIWGDGSTNYHSALISRLIISKENSKSQVFLKLNSLQTNDTATYYCTKGFVYWGQGTLVTVSA
VL: QIVLTQSPAIMSASPGEKVTMTCSASSSVSYMHWYQQKSGTSPKRWIFDTSKLASGVPARFSGSGSGTSYSLTISSMEAEDAATYYCQQWSSNLLTFGAGTKLELK
hybridoma screening: specificity for STn [1]: specific for STn | activity in OV-90 cells (OV-90 cells): lack of effect | Net cell counts of cells showing positive internalization (MDA-MD-231 STn cells; 15 min at 37° C.): 458 | Net cell counts of cells showing positive internalization (MDA-MD-231 STn cells; 30 min at 37° C.): 154 | Net cell counts of cells showing positive internalization (MDA-MD-231 STn cells; 60 min at 37° C.): 126 | Net cell counts of cells showing positive internalization (MDA-MD-231 STn cells; 4 hr at 37° C.): 61 | Net cell counts of cells showing positive internalization (MDA-MD-231 STn cells; 4 hr, no perm): 145
